Test results from patent US20260242735A1 (UNIVERSIT T BASEL, published 2026).

Key:
Test in all cases: BLI (Octet R8), avidity format: biotinylated CD33 on streptavidin sensor, Refmab #1 as analyte at 300 or 500 nM;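 further: sensorgrams recorded with a 300 s analyte association phase followed by a 900 s dissociation phase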
[1] = molecular target: CD33 variant N20G (recombinant, biotinylated) (human, UniProt P20138 21-259, biotinylated with EZ-Link Sulfo-NHS-LC-Biotin (sites not given))
[2] = molecular target: CD33 variant W22E (recombinant, biotinylated) (human, UniProt P20138 18-259, biotinylated with EZ-Link Sulfo-NHS-LC-Biotin (sites not given))
Chain of CD33 variant W22E (recombinant, biotinylated) (P20138 other isoform, or with tags, fused parts or gaps W22E W22E): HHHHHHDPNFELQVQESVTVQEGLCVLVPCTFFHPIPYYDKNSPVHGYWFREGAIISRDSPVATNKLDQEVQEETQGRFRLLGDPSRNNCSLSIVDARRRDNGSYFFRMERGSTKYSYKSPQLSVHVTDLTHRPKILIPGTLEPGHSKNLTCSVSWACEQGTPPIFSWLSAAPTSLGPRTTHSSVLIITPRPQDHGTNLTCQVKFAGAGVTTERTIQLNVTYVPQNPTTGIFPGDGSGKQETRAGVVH

[3] = molecular target: CD33 variant N20V (recombinant, biotinylated) (human, UniProt P20138 21-259, biotinylated with EZ-Link Sulfo-NHS-LC-Biotin (sites not given))
Chain of CD33 variant N20V (recombinant, biotinylated) (P20138 other isoform, or with tags, fused parts or gaps N20V N20V): as the sequence (P20138 other isoform, or with tags, fused parts or gaps W22E W22E) above, with N9V, E11W counted along it

[4] = molecular target: CD33 variant Y50D (recombinant, biotinylated) (human, UniProt P20138 18-259, biotinylated with EZ-Link Sulfo-NHS-LC-Biotin (sites not given))
Chain of CD33 variant Y50D (recombinant, biotinylated) (P20138 other isoform, or with tags, fused parts or gaps Y50D Y50D): as the sequence (P20138 other isoform, or with tags, fused parts or gaps W22E W22E) above, with E11W, Y39D counted along it

[5] = molecular target: T1, CD33 wild type (recombinant, biotinylated) (human, UniProt P20138 18-259, biotinylated with EZ-Link Sulfo-NHS-LC-Biotin (sites not given))
T1 construct: also called WT; CD33 wt

[6] = molecular target: CD33 variant F44P (recombinant, biotinylated) (human, UniProt P20138 18-259, biotinylated with EZ-Link Sulfo-NHS-LC-Biotin (sites not given))
Chain of CD33 variant F44P (recombinant, biotinylated) (P20138 other isoform, or with tags, fused parts or gaps F44P F44P): as the sequence (P20138 other isoform, or with tags, fused parts or gaps W22E W22E) above, with E11W, F33P counted along it

[7] = molecular target: CD33 variant F21N (recombinant, biotinylated) (human, UniProt P20138 22-259, biotinylated with EZ-Link Sulfo-NHS-LC-Biotin (sites not given))
Chain of CD33 variant F21N (recombinant, biotinylated) (P20138 other isoform, or with tags, fused parts or gaps F21N F21N): as the sequence (P20138 other isoform, or with tags, fused parts or gaps W22E W22E) above, with F10N, E11W counted along it

[8] = molecular target: CD33 variant W22T (recombinant, biotinylated) (human, UniProt P20138 18-259, biotinylated with EZ-Link Sulfo-NHS-LC-Biotin (sites not given))
Chain of CD33 variant W22T (recombinant, biotinylated) (P20138 other isoform, or with tags, fused parts or gaps W22T W22T): as the sequence (P20138 other isoform, or with tags, fused parts or gaps W22E W22E) above, with E11T counted along it

[9] = molecular target: CD33 variant W22K (recombinant, biotinylated) (human, UniProt P20138 18-259, biotinylated with EZ-Link Sulfo-NHS-LC-Biotin (sites not given))
Chain of CD33 variant W22K (recombinant, biotinylated) (P20138 other isoform, or with tags, fused parts or gaps W22K W22K): as the sequence (P20138 other isoform, or with tags, fused parts or gaps W22E W22E) above, with E11K counted along it

[10] = molecular target: CD33 variant F21S (recombinant, biotinylated) (human, UniProt P20138 22-259, biotinylated with EZ-Link Sulfo-NHS-LC-Biotin (sites not given))
Chain of CD33 variant F21S (recombinant, biotinylated) (P20138 other isoform, or with tags, fused parts or gaps F21S F21S): as the sequence (P20138 other isoform, or with tags, fused parts or gaps W22E W22E) above, with F10S, E11W counted along it

[11] = molecular target: CD33 variant Y50R (recombinant, biotinylated) (human, UniProt P20138 18-259, biotinylated with EZ-Link Sulfo-NHS-LC-Biotin (sites not given))
[12] = molecular target: CD33 variant N20H (recombinant, biotinylated) (human, UniProt P20138 21-259, biotinylated with EZ-Link Sulfo-NHS-LC-Biotin (sites not given))
Chain of CD33 variant N20H (recombinant, biotinylated) (P20138 other isoform, or with tags, fused parts or gaps N20H N20H): as the sequence (P20138 other isoform, or with tags, fused parts or gaps W22E W22E) above, with N9H, E11W counted along it

[13] = molecular target: CD33 variant W22D (recombinant, biotinylated) (human, UniProt P20138 18-259, biotinylated with EZ-Link Sulfo-NHS-LC-Biotin (sites not given))
Chain of CD33 variant W22D (recombinant, biotinylated) (P20138 other isoform, or with tags, fused parts or gaps W22D W22D): as the sequence (P20138 other isoform, or with tags, fused parts or gaps W22E W22E) above, with E11D counted along it

[14] = molecular target: CD33 variant Y50K (recombinant, biotinylated) (human, UniProt P20138 18-259, biotinylated with EZ-Link Sulfo-NHS-LC-Biotin (sites not given))
Chain of CD33 variant Y50K (recombinant, biotinylated) (P20138 other isoform, or with tags, fused parts or gaps Y50K Y50K): as the sequence (P20138 other isoform, or with tags, fused parts or gaps W22E W22E) above, with E11W, Y39K counted along it

[15] = molecular target: CD33 variant F21Q (recombinant, biotinylated) (human, UniProt P20138 22-259, biotinylated with EZ-Link Sulfo-NHS-LC-Biotin (sites not given))
[16] = molecular target: CD33 variant W22R (recombinant, biotinylated) (human, UniProt P20138 18-259, biotinylated with EZ-Link Sulfo-NHS-LC-Biotin (sites not given))
Chain of CD33 variant W22R (recombinant, biotinylated) (P20138 other isoform, or with tags, fused parts or gaps W22R W22R): as the sequence (P20138 other isoform, or with tags, fused parts or gaps W22E W22E) above, with E11R counted along it

[17] = molecular target: CD33 double variant Y50H_H49H (recombinant, biotinylated) (human, UniProt P20138 18-259, biotinylated with EZ-Link Sulfo-NHS-LC-Biotin (sites not given))
[18] = molecular target: CD33 variant N20E (recombinant, biotinylated) (human, UniProt P20138 21-259, biotinylated with EZ-Link Sulfo-NHS-LC-Biotin (sites not given))
Chain of CD33 variant N20E (recombinant, biotinylated) (P20138 other isoform, or with tags, fused parts or gaps N20E N20E): as the sequence (P20138 other isoform, or with tags, fused parts or gaps W22E W22E) above, with N9E, E11W counted along it

[19] = molecular target: CD33 variant F21V (recombinant, biotinylated) (human, UniProt P20138 22-259, biotinylated with EZ-Link Sulfo-NHS-LC-Biotin (sites not given))
[20] = molecular target: CD33 variant N20K (recombinant, biotinylated) (human, UniProt P20138 21-259, biotinylated with EZ-Link Sulfo-NHS-LC-Biotin (sites not given))
Chain of CD33 variant N20K (recombinant, biotinylated) (P20138 other isoform, or with tags, fused parts or gaps N20K N20K): as the sequence (P20138 other isoform, or with tags, fused parts or gaps W22E W22E) above, with N9K, E11W counted along it

[21] = molecular target: CD33 variant F21H (recombinant, biotinylated) (human, UniProt P20138 22-259, biotinylated with EZ-Link Sulfo-NHS-LC-Biotin (sites not given))
Chain of CD33 variant F21H (recombinant, biotinylated) (P20138 other isoform, or with tags, fused parts or gaps F21H F21H): as the sequence (P20138 other isoform, or with tags, fused parts or gaps W22E W22E) above, with F10H, E11W counted along it

[22] = molecular target: CD33 variant F21M (recombinant, biotinylated) (human, UniProt P20138 22-259, biotinylated with EZ-Link Sulfo-NHS-LC-Biotin (sites not given))
Chain of CD33 variant F21M (recombinant, biotinylated) (P20138 other isoform, or with tags, fused parts or gaps F21M F21M): as the sequence (P20138 other isoform, or with tags, fused parts or gaps W22E W22E) above, with F10M, E11W counted along it

[23] = molecular target: CD33 variant F21I (recombinant, biotinylated) (human, UniProt P20138 22-259, biotinylated with EZ-Link Sulfo-NHS-LC-Biotin (sites not given))
Chain of CD33 variant F21I (recombinant, biotinylated) (P20138 other isoform, or with tags, fused parts or gaps F21I F21I): as the sequence (P20138 other isoform, or with tags, fused parts or gaps W22E W22E) above, with F10I, E11W counted along it

[24] = molecular target: CD33 variant F21L (recombinant, biotinylated) (human, UniProt P20138 22-259, biotinylated with EZ-Link Sulfo-NHS-LC-Biotin (sites not given))
Chain of CD33 variant F21L (recombinant, biotinylated) (P20138 other isoform, or with tags, fused parts or gaps F21L F21L): as the sequence (P20138 other isoform, or with tags, fused parts or gaps W22E W22E) above, with F10L, E11W counted along it

Chain of CD33 variant N20G (recombinant, biotinylated) (P20138 other isoform, or with tags, fused parts or gaps N20G N20G): as the sequence (P20138 other isoform, or with tags, fused parts or gaps W22E W22E) above, with N9G, E11W counted along it

B1: Refmab #1 (antibody, human IgG1, V domains shown)
VH: EVQLVQSGAEVKKPGSSVKVSCKASGYTITDSNIHWVRQAPGQSLEWIGYIYPYNGGTDYNQKFKNRATLTVDNPTNTAYMELSSLRSEDTAFYYCVNGNPWLAYWGQGTLVTVSS
VL: DIQLTQSPSTLSASVGDRVTITCRASESLDNYGIRFLTWFQQKPGKAPKLLMYAASNQGSGVPSRFSGSGSGTEFTLTISSLQPDDFATYYCQQTKEVPWSFGQGTKVEVK
notes: also called hP67.6; Absolute Antibody Cat. No. Ab00283-10.0
[1]
  % WT binding: 9.44 % WT binding
[2]
  % WT binding: 67.5 % WT binding
[3]
  % WT binding: 29.3 % WT binding
[4]
  % WT binding: 131 % WT binding
[5]
  % WT binding: 100 % WT binding
[6]
  % WT binding: 2 % WT binding
[7]
  % WT binding: 0 % WT binding
[8]
  % WT binding: 37.5 % WT binding
[9]
  % WT binding: 22.4 % WT binding
[10]
  % WT binding: 9.03 % WT binding
[11]
  % WT binding: 108 % WT binding
[12]
  % WT binding: 32.9 % WT binding
[13]
  % WT binding: 12.7 % WT binding
[14]
  % WT binding: 86.6 % WT binding
[15]
  % WT binding: 0 % WT binding
[16]
  % WT binding: 51.9 % WT binding
[17]
  % WT binding: 95.8 % WT binding
[18]
  % WT binding: 5.59 % WT binding
[19]
  % WT binding: 5.41 % WT binding
[20]
  % WT binding: 6.79 % WT binding
[21]
  % WT binding: 10.4 % WT binding
[22]
  % WT binding: 6.62 % WT binding
[23]
  % WT binding: 0 % WT binding
[24]
  % WT binding: 12.2 % WT binding
